In patent publication US20110150870A1:

Legend:
[1] = target: human Fc-NKG2D (human) (UniProt P26718); test: SPR (BIAcore 2000), human Fc-NKG2D immobilized on chip; bivalent binding (virtual affinity, avidity)
[2] = target: human NKG2D, cell surface (human) (UniProt P26718); test: cell-based or functional assay
[3] = target: human Fc-NKG2D (human) (UniProt P26718); test: SPR (BIAcore 2000), human Fc-NKG2D immobilized on chip; bivalent IgG

Chain of human Fc-NKG2D (human) (P26718 78-216 limits assumed): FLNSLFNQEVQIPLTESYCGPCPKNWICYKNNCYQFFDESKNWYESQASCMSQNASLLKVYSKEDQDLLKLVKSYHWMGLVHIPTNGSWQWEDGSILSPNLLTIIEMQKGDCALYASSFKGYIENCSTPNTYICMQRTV
Chain of human NKG2D, cell surface (human) (P26718 whole entry): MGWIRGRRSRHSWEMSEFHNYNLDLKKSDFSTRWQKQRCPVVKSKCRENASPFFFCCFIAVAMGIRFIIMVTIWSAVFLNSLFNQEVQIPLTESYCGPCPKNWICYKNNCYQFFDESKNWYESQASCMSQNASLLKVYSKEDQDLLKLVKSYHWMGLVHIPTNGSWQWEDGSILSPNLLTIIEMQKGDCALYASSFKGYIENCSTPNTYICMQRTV

- Kd [1]: 0.36 nM
- percentage of degranulated NK cells (CD56+ CD107a/CD107b+) among total NK cells (CD56+), immobilized antibody, Donor 1 [2]: 13.6%
- percentage of degranulated NK cells (CD56+ CD107a/CD107b+) among total NK cells (CD56+), immobilized antibody, Donor 2 [2]: 16.3%
- percentage of degranulated NK cells (CD56+ CD107a/CD107b+) among total NK cells (CD56+), immobilized antibody, Donor 3 [2]: 24.3%
- percentage of degranulated NK cells (CD56+ CD107a/CD107b+) among total NK cells (CD56+), immobilized antibody, Donor 4 [2]: 8.4%
- koff [3]: 5.1e-05 s⁻¹
- kon [3]: 140000 M⁻¹ s⁻¹
Substance: mouse anti-human NKG2D mAb 149810 (antibody)
